Measured values from the supplement of paper PMC9170038.

Test system: MS2 coat protein
Experiment: apparent KD of MS2 coat protein; higher = weaker reporter binding
Conditions: Eterna round: R107
Summary of the method: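 Titration buffer: 100 mM Tris-HCl pH 7.5, 80 mM KCl, 4 mM MgCl2, without or with constant ligand. Designed RNA switches transcribed on-chip from Illumina sequencing clusters received SNAP-549-labelled MS2 coat protein in twofold steps from 0.7 or 1.5 nM to 3 µM. Apparent KD is the median per design of fits to normalised cluster binding curves.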

[1] = input ligand: theophylline 20 uM
[2] = input ligand: theophylline 2 mM
[3] = input ligand: tryptophan 2.4 mM

GGUAUGUAUUCGGAAACGAAUGCAUACCAACGAGGACCGGUACGGCCGCCACUCGGCCGUGAUCAACAUGAGGAUCACCCAUGUA [Ex Tryptophan A 6]
apparent KD of MS2 coat protein (input ligand: arginine 13.2 mM): 16.3 nM | apparent KD of MS2 coat protein [1]: 21.5 nM | apparent KD of MS2 coat protein [2]: 20.2 nM

ACCUGCGUUUGAUAAAAUCAGACGCAGGUUCGAGGACCGGUACGGCCGCCACUCGGACAUGAGGAUCACCCAUGUUUGACAUGGG [#05 Exclusion Tryptophan A]
apparent KD of MS2 coat protein (input ligand: arginine 13.2 mM): 168 nM | apparent KD of MS2 coat protein [1]: 301 nM | apparent KD of MS2 coat protein [2]: 746 nM

AGCCGGAUUACGGCCGCCACUGUAGACGUGACGAAAGUCGCGUCAACAUGAGGAUCACCCAUGUACAGGACCGGGUGGUCAGGCG [Omei Tryp B SS A v4]
apparent KD of MS2 coat protein (input ligand: arginine 13.2 mM): 108 nM | apparent KD of MS2 coat protein [1]: 432 nM | apparent KD of MS2 coat protein [2]: 464 nM

UAAGUUAGGGCGGCCGCCACUCGAACAUGAGGAUCACCCAUGUAAAUUAAUUAAAGGACAUGAAUGAGGACCGGGCCAAGUUAGA [Same State - Tryptophan B / A]
apparent KD of MS2 coat protein (input ligand: arginine 13.2 mM): 13.9 nM | apparent KD of MS2 coat protein [1]: 20.2 nM | apparent KD of MS2 coat protein [2]: 15.2 nM

AUGUCGUUGAAUAUAGCGGCUUGGUGUGAUACCAGAAUGAUCUAAUUCCCUUGGCAGCAUUACAUGAGGAUCACCCAUGUUCAGG [SSTheo A #20]
apparent KD of MS2 coat protein (input ligand: arginine 13.2 mM): 22 nM | apparent KD of MS2 coat protein [1]: 28 nM | apparent KD of MS2 coat protein [3]: 26.3 nM

AGAGUUAGACAAAAGUCUAGCUCACCAGAAGGAGCGUCCGAAAGGACAGGUAGGUCGCUGGUACACGAGGAUCACCCGUGUUCCU [ArgAS 16 #OpenEnded #AlternativeMS2]
apparent KD of MS2 coat protein (input ligand: arginine 13.2 mM): 27.6 nM | apparent KD of MS2 coat protein (input ligand: none): 38.6 nM | apparent KD of MS2 coat protein [1]: 40.4 nM | apparent KD of MS2 coat protein [2]: 50.3 nM | apparent KD of MS2 coat protein [3]: 36.8 nM

GCCGCGGCCGCGAUACACAUGGGUAUGUAACGAGGACCGGUACGGCCGCCACUCGAGAUAAUGUACAUGAGGAUCACCCAUGUAC [Exclusion Tryp A GF12]
apparent KD of MS2 coat protein (input ligand: arginine 13.2 mM): 10.3 nM | apparent KD of MS2 coat protein [1]: 15.1 nM | apparent KD of MS2 coat protein [2]: 12.8 nM

AGCGACAUGAGGAUCACCCAUGUACAUUCCCGAGGACCGGUACGGCCGCCACUCGAUGGAAGUGGUAGCAGCUUGGAUGGGCCUA [theeternabot_sameState_MS2_Trp_A_23]
apparent KD of MS2 coat protein (input ligand: arginine 13.2 mM): 14.5 nM | apparent KD of MS2 coat protein [1]: 20 nM | apparent KD of MS2 coat protein [2]: 17.8 nM

UACUUGCUGACGGCCGCCACUAGAACAUGAGGAUCACCCAUGUAAGUGGUUGGUUCAUGGGUGACUAGGACCGGGUCAGCAAGAU [(Trp1)-(Ms2)-(T)'-(M)'-(Trp2)_Design19]
apparent KD of MS2 coat protein (input ligand: arginine 13.2 mM): 26.9 nM | apparent KD of MS2 coat protein [1]: 47.9 nM | apparent KD of MS2 coat protein [2]: 37.7 nM

ACAUGAGCAUCAGCCAUGUGUAUGACAUGACGAGGACCGGUACGGCCGCCACUCGACAUGAGGAUCACCCAUGUUGAGGAUCACA [Exclusion - Tryptophan A #1]
apparent KD of MS2 coat protein (input ligand: arginine 13.2 mM): 7.95 nM | apparent KD of MS2 coat protein [1]: 11.2 nM | apparent KD of MS2 coat protein [2]: 11.3 nM

ACGUAAUGCAGAAGGAGCGUCUUAUUAAUACAUGAGGAUCACCCAUGUUAUAUUUAUGGUAGACAGGUAGGUCGCUGAAGUACGA [JR_SSArginiB_Sub008]
apparent KD of MS2 coat protein (input ligand: arginine 13.2 mM): 8.86 nM | apparent KD of MS2 coat protein (input ligand: none): 11.8 nM | apparent KD of MS2 coat protein [1]: 17.3 nM | apparent KD of MS2 coat protein [2]: 13.2 nM | apparent KD of MS2 coat protein [3]: 10.7 nM

AUCCAGAGCCGAAGGAGCGCUAGAAGAUGACAUGAGGAUCACCCAUGUGUGUGAUGUGGCUAGCAGGUAGGUCGCGGACUGGAUU [Exclusion - Arginine B (Freestyle 13)]
apparent KD of MS2 coat protein (input ligand: arginine 13.2 mM): 20.1 nM | apparent KD of MS2 coat protein (input ligand: none): 22.4 nM | apparent KD of MS2 coat protein [1]: 28.1 nM | apparent KD of MS2 coat protein [2]: 33.5 nM | apparent KD of MS2 coat protein [3]: 18.7 nM

AUAACUGUAAUAAACCGCAGGCUAGUGGAAGGAGCGCGGAAUAACGCAGGUAGGUCGCCACAAACUUGAGGAUCACCCAGGUGGC [SSAA NP+V+V2 #7 Diff Apt]
apparent KD of MS2 coat protein (input ligand: arginine 13.2 mM): 38.1 nM | apparent KD of MS2 coat protein (input ligand: none): 49 nM | apparent KD of MS2 coat protein [1]: 78.8 nM | apparent KD of MS2 coat protein [2]: 57.7 nM | apparent KD of MS2 coat protein [3]: 48.6 nM

AUGCUGACAAGGAGGUGUUCCUCAGCUGAUACCAGCCUGGAAACAGGCCCUUGGCAGCAGCACAUGAGGAUCACCCAUGUAAUAA [(T)'-(M)'-(T1)-(T2)-(M1)-(M2)_Design1(Mismatches)]
apparent KD of MS2 coat protein (input ligand: arginine 13.2 mM): 56.5 nM | apparent KD of MS2 coat protein (input ligand: none): 27 nM | apparent KD of MS2 coat protein [1]: 517 nM | apparent KD of MS2 coat protein [2]: 12.4 nM | apparent KD of MS2 coat protein [3]: 33.4 nM

ACUCGGUGUUUGUUGCUCCGAGUGUAUGAUACCAGUCAGUUUUAUGGCCCUUGGCAGCAUAGGACAUGAGGAUCACCCAUGUGUU [#01 SameState-TheophyllineA]
apparent KD of MS2 coat protein (input ligand: arginine 13.2 mM): 32.9 nM | apparent KD of MS2 coat protein (input ligand: none): 44.9 nM | apparent KD of MS2 coat protein [1]: 49 nM | apparent KD of MS2 coat protein [2]: 33.8 nM | apparent KD of MS2 coat protein [3]: 50.8 nM
